Measurements reported in doi:10.1101/2021.03.10.433854.
“And” between values parts separate entries of the source, which are not always exact repeats. Identical values can stand only once. Like-named read-outs stand apart in the source and are kept apart here.

Legend:
Assay in all cases: SPR
[1] = biological target: catalytic domain of human AURKA (amino acids 122-430) (human)
[2] = biological target: catalytic domain of human AURKA (amino acids 122-430) (human); remark: listed apart in the source
[3] = biological target: catalytic domain of human AURKA (amino acids 122-430) (human); remark: listed apart in the source

Kd [1]: 0.69 µM and 4 µM
Kd [2]: 0.99 µM
koff [2]: 0.0659 s⁻¹
kon [2]: 63000 M⁻¹ s⁻¹
Kd [3]: > 15 µM
Substance: AURKA interacting region (AIR) of N-Myc (N-Myc residues 61-89) (from UniProt P04198 61-89) (peptide)
